Assay results published in US20230312744A1, “Modulatory Substance of Tumor Immune Microenvironment, and Preventive, Diagnostic and/or Therapeutic Utilization of the Same” (The University Of Tokyo, priority 2020, published 2023).

Test system: SL4 tumors
Assay: Proliferation assay of subcutaneously transplanted SL4 tumor in C57BL/6 mice (tumor volume)
Assay type: in vivo
Conditions: 200 μg/mouse intraperitoneally every other day from Day 1 after transplantation, vs control IgG, FIG. 13(a)
Experimental: In FIG. 13(a), SL4 cells (1×10^5 cells) were subcutaneously transplanted into C57BL/6 mice. The monoclonal antibody (55F3) (n=5) reacting against TCTP or control IgG (n=6) was intraperitoneally administered to the mice, every other day from one day after the transplantation (200 μg/mouse). The tumor volume was measured over time. In FIG. 13(b), on Day 13 after the transplantation, single cell suspensions were prepared from tumors, and were then subjected to a flow cytometry analysis (n=5). […] In FIG. 13(c), SL4 cells (1×10^5 cells) were subcutaneously transplanted into C57BL/6 mice (n=6). After the transplantation, DHA (50 mg/kg) was intraperitoneally […] into the mice every day. The tumor volume was measured over time. In FIG. 13(d), SL4 cells (1×10^5 cells) were subcutaneously transplanted into C57BL/6 mice (n=6). […] The tumor volume was measured over time. […] In FIG. 13(f), the amount of TCTP in sera derived from healthy subjects (people who are not affected with cancer) (n=5) and colorectal cancer patients (n=14) was quantified by immunoblotting. […] In FIG. 13 (g), (right view) the relative staining intensity by the anti-TCTP antibody was semi-quantified, and the staining intensity of the colorectal cancer tissues was compared with the staining intensity of the normal large intestinal tissues (n=45). […]

B1: 55F3: Mouse monoclonal antibody against human TCTP peptide SEQ ID NO: 25; CDRs SEQ ID NO: 1-6, VH SEQ ID NO: 19, VL SEQ ID NO: 22 (antibody, listed as Mus musculus)
VH: MRVLILLWLFTAFPGILSDVQLQESGPGLVKPSQSLSLTCTATGYSIASDYAWNWIRQFPGNKLEWMGYINYSGSTGYNPSLKSRISITRDTSKNQFFLQLNSVTTEDTATYYCARFEAGYWGQGTTLTVSSAKTTPPSVYPLAPGSAAQTNSMVTLGCLVKGYFPEPVT
VL: MDMRTPAQFLGILLLWFPGIKCDIKMTQSPSSMSASLGERVTITCKASQDINRYLSWFQQKPGKSPKTLIYRANRLVDGVPSRFSGSGSGQDYSLTISSLEYGDMGIYYCLQYNEFPLTFGAGTKLELKRADAAPTVSIFPPSSEQLTSGGASVVCFLN
proliferation speed of SL4 tumor cells (tumor volume): decreased
